Article PMC9407403 (Proceedings of the National Academy of Sciences of the …, 2022)

Molecular target: T1, SARS-CoV-2 WT spike (S) protein (SARS-CoV-2 prototype Wuhan-Hu-1 …, UniProt P0DTC2)
T1 construct: source: bought: Sino Biological Inc., purified
Assay: cryo-EM structure
Settings: both partners purified

B1: Fab fragment of nAb X10 (Fab, V domains shown)
VH: EVQLQQSGPELVKPGASVKISCKTSGYTFTEYTLHWVKQSHGKSLEWIGGFDPNFGGATYNLKFEDKATLTVDKSSNTAYMELRSLTSEDSAVFYCARGDYGTSYAYFDFWGQGTTLTVSS
VL: DIVLTQSPASLAVSLGQRAAISCRASQSVSTSSHNYVHWYQQRPGQPPKLLIKYASNLECGVPARFSGSGSGTDFTLNIHPVEEEDSAAYYCQHSWEIPYTFGGGTKLEIK
B1: binds.

B2: Fab fragment of nAb X01 (Fab, V domains shown)
VH: EIQLQQSGPELVAPGASVKVSCKASGYAFTSYNMYWVRQSHGKSLEWIGYIVPYNGGTTYNQEFKGKATLTVDKSSNTAYIHLNSLTSEDSAVYYCAKEGTYYGYDGVLADWGQGTLVT
VL: DIQMTQSSSYLSVSLGGRVTITCKASDHINNWLAWYQQKPGNAPRLLISGVTNLETGVPSRFSGSGSGKNFTLSIASLQTEDVATYYCQQYWSFPWTFGGGTKLEIR
B2: binds.
